# Reference: the supplement of paper PMC10065799, “High-throughput profiling of sequence recognition by tyrosine kinases and SH2 domains using bacterial peptide display” (eLife, 2023)
# Columns and labels:
# SHP2-C SH2 = test: SH2 binding enrichment of the phosphorylated peptide, bacterial display (enrichment ratio); higher = better substrate or ligand; peptides without Tyr show the background
# Grb2 SH2 = Grb2 SH2 (UniProt P62993); test: as above
# c-Src SH2 = test: as above
# EPHB1 = EPHB1 (UniProt P54762); test: phosphorylation enrichment, bacterial display (enrichment ratio); higher = better substrate or ligand; peptides without Tyr show the background
# Fes = Fes (UniProt P07332); test: as above
# Fyn = Fyn (UniProt P06241); test: as above
# Jak2 = Jak2 (UniProt O60674); test: as above
# Hck = Hck (UniProt P08631); test: as above
# AncSZ = test: as above
# MERTK = MERTK (UniProt Q12866); test: as above
# c-Abl (mouse) = test: as above
# c-Src = test: as above
# FGFR1 = FGFR1 (UniProt P11362); test: as above
# EPHB2 = EPHB2 (UniProt P29323); test: as above
# FGFR3 = FGFR3 (UniProt P22607); test: as above
# Fer (mouse) = test: as above
# 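For SH2 binding enrichment of the phosphorylated peptide, bacterial display in this document: peptide library displayed on the E. coli surface as eCPX fusions, selected cells deep-sequenced, score is each peptide's frequency after selection divided by its frequency in the input.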
# 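For phosphorylation enrichment, bacterial display in this document: 11-residue human phosphosite peptides and single-mutation variants displayed on the E. coli surface, counted by deep sequencing, each peptide's frequency after selection divided by its frequency in the unselected input library; frequency after pTyr selection over input frequency; kinase dosed for 20-30% of maximal phosphorylation in three min.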
# Hck, sequence (P08631 whole entry, looked up): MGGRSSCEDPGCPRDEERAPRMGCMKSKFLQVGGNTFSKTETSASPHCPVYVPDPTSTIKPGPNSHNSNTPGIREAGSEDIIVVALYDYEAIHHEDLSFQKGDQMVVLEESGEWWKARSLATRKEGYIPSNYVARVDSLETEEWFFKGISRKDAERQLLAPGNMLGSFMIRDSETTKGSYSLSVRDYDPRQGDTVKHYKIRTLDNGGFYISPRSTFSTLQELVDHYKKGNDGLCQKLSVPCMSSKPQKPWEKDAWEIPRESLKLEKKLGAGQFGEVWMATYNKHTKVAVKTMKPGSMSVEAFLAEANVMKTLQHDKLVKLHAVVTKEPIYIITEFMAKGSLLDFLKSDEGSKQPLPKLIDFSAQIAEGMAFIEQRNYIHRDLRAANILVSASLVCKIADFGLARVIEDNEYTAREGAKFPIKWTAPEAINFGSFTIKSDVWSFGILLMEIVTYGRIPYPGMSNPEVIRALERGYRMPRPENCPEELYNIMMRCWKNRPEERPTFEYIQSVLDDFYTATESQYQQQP
# EPHB1, sequence (P54762 whole entry, looked up): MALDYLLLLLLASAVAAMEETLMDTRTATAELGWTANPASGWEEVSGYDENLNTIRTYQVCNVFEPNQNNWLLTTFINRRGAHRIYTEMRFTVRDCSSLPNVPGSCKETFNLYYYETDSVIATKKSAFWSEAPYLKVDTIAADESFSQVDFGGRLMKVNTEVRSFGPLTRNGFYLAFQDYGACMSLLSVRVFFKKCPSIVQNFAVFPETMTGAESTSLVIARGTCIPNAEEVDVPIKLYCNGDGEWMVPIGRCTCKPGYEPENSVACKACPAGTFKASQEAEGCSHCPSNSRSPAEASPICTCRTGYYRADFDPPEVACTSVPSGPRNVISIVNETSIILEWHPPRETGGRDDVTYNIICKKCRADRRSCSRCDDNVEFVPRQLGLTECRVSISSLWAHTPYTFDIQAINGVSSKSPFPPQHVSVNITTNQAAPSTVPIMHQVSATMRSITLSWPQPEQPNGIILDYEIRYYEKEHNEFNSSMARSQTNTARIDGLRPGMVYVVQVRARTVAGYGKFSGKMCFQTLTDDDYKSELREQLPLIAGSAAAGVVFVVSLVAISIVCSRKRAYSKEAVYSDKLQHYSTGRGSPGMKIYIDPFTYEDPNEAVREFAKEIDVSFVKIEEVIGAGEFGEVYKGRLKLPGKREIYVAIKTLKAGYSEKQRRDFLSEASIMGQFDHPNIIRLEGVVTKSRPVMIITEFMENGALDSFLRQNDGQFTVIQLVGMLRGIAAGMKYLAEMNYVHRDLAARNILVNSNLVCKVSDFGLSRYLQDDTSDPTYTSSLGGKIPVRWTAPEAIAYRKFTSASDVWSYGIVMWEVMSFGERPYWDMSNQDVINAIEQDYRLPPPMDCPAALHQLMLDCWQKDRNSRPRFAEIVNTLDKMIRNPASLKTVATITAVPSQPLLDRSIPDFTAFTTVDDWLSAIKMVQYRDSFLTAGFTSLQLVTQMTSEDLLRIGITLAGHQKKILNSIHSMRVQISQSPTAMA
# Fes, sequence (P07332 whole entry, looked up): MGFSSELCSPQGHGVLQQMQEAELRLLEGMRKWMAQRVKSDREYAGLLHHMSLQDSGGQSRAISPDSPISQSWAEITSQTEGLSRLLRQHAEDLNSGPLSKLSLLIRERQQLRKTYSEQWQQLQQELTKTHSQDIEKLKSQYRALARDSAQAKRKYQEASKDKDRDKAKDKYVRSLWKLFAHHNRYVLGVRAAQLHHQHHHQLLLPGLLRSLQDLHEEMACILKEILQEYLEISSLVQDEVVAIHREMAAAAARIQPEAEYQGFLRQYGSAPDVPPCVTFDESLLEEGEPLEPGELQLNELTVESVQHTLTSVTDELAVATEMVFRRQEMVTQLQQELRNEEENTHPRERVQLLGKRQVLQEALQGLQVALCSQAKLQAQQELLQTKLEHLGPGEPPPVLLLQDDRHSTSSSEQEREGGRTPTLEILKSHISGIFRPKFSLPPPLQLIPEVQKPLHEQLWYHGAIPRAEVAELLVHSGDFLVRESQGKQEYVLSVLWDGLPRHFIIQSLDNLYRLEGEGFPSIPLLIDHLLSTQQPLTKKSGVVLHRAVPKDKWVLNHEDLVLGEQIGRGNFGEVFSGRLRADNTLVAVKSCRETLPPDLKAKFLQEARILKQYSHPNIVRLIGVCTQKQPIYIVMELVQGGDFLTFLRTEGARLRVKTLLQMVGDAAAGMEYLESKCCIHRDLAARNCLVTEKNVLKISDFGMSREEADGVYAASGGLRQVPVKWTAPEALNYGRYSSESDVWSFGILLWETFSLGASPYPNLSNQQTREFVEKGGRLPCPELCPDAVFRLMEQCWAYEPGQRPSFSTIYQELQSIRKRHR
# Fyn, sequence (P06241 whole entry, looked up): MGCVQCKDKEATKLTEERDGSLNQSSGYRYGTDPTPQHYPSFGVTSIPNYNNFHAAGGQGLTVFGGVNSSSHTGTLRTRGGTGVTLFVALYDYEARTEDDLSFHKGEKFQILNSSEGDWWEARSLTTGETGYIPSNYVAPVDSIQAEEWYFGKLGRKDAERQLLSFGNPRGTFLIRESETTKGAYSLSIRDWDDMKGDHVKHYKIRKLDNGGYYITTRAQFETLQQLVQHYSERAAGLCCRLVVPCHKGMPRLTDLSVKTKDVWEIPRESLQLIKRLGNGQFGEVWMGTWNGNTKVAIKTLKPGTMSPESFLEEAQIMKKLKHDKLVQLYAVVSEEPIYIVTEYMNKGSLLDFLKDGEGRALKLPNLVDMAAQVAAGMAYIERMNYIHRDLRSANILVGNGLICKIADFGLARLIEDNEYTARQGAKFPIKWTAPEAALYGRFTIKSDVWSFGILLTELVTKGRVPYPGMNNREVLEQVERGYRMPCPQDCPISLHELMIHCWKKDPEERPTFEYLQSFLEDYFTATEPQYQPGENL
# MERTK, sequence (Q12866 whole entry, looked up): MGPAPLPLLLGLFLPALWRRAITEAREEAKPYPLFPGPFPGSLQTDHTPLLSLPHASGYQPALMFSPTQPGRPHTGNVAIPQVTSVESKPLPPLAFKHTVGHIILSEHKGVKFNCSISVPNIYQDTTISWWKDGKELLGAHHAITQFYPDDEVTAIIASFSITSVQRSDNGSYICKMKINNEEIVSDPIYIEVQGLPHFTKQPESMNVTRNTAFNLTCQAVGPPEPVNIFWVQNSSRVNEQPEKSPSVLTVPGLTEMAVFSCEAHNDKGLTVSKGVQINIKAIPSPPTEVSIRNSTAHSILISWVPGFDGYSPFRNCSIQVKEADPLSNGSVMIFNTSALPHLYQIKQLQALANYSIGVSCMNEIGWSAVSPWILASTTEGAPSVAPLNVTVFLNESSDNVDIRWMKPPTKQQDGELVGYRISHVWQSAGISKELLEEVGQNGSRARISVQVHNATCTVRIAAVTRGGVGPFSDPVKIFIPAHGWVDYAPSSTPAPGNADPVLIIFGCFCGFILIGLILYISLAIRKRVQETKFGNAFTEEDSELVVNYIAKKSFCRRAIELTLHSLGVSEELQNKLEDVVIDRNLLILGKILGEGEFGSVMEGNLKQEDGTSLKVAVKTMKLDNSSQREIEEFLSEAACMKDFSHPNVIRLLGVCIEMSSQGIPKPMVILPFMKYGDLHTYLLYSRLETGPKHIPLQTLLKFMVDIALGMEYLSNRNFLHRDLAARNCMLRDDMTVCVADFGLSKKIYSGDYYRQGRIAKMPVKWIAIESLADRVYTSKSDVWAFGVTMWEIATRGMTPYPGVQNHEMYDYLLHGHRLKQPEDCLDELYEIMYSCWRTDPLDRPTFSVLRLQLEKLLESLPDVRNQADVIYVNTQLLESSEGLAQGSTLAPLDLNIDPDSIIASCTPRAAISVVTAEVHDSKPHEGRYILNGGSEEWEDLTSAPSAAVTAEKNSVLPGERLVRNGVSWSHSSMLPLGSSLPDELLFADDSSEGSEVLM
# Grb2 SH2, sequence (P62993 whole entry, looked up): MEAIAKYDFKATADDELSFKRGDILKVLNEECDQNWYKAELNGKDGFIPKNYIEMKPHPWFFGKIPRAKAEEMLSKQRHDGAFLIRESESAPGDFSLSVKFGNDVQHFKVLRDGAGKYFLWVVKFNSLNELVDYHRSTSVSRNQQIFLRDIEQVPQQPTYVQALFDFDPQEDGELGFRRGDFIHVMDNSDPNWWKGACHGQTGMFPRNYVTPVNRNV
# FGFR1, sequence (P11362 whole entry, looked up): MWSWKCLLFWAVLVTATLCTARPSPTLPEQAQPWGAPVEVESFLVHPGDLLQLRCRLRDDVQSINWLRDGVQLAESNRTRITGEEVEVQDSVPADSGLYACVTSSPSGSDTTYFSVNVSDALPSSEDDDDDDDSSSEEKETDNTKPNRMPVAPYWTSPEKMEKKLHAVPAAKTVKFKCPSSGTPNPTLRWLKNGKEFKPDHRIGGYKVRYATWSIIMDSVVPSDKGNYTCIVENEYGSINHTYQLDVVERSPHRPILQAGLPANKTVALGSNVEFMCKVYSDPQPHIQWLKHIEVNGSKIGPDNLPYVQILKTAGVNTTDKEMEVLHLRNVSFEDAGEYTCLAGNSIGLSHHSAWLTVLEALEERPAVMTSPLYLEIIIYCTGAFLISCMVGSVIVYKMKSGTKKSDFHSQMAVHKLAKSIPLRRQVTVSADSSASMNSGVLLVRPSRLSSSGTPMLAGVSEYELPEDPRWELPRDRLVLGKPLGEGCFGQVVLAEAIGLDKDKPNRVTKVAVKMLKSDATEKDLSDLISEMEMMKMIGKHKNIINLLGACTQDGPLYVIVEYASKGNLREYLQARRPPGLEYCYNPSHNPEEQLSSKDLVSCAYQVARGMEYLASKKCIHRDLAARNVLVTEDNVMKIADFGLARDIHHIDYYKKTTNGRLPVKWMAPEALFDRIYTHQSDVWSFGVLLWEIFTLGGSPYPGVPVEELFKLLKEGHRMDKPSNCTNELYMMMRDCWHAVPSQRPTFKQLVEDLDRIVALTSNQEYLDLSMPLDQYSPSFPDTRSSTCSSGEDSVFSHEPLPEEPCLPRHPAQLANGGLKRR
sequence,measurement,setting,value
PLKFLYPNIDK [STAT1_Y668_YF],SH2 binding enrichment,SHP2-C SH2,0.647
same,SH2 binding enrichment,Grb2 SH2,0.714
same,SH2 binding enrichment,c-Src SH2,0.72
same,phosphorylation enrichment,EPHB1,0.945
same,phosphorylation enrichment,Fes,2.18
same,phosphorylation enrichment,Fyn,1.16
same,phosphorylation enrichment,Jak2,1.65
same,phosphorylation enrichment,Hck,1.09
same,phosphorylation enrichment,AncSZ,1.26
same,phosphorylation enrichment,MERTK,0.846
same,phosphorylation enrichment,c-Abl (mouse),1.38
same,phosphorylation enrichment,c-Src,0.939
same,phosphorylation enrichment,FGFR1,1.54
same,phosphorylation enrichment,EPHB2,1.3
same,phosphorylation enrichment,FGFR3,0.822
same,phosphorylation enrichment,Fer (mouse),1.13
SIKDKYVTVLF [KCNH2_Y611_A614V_YF],SH2 binding enrichment,SHP2-C SH2,10.8
same,SH2 binding enrichment,Grb2 SH2,1.04
same,SH2 binding enrichment,c-Src SH2,0.669
same,phosphorylation enrichment,EPHB1,0.481
same,phosphorylation enrichment,Fes,0.91
same,phosphorylation enrichment,Fyn,0.442
same,phosphorylation enrichment,Jak2,0.743
same,phosphorylation enrichment,Hck,0.546
same,phosphorylation enrichment,AncSZ,0.763
same,phosphorylation enrichment,MERTK,0.375
same,phosphorylation enrichment,c-Abl (mouse),0.549
same,phosphorylation enrichment,c-Src,0.361
same,phosphorylation enrichment,FGFR1,0.482
same,phosphorylation enrichment,EPHB2,0.48
same,phosphorylation enrichment,FGFR3,0.646
same,phosphorylation enrichment,Fer (mouse),0.392
EVESPYEVHDY [GIGYF2_Y1168],SH2 binding enrichment,SHP2-C SH2,0.599
same,SH2 binding enrichment,Grb2 SH2,0.86
same,SH2 binding enrichment,c-Src SH2,0.485
same,phosphorylation enrichment,EPHB1,0.785
same,phosphorylation enrichment,Fes,1.1
same,phosphorylation enrichment,Fyn,4.95
same,phosphorylation enrichment,Jak2,1.03
same,phosphorylation enrichment,Hck,1.13
same,phosphorylation enrichment,AncSZ,1.66
same,phosphorylation enrichment,MERTK,0.567
same,phosphorylation enrichment,c-Abl (mouse),0.762
same,phosphorylation enrichment,c-Src,4.25
same,phosphorylation enrichment,FGFR1,0.489
same,phosphorylation enrichment,EPHB2,0.84
same,phosphorylation enrichment,FGFR3,0.792
same,phosphorylation enrichment,Fer (mouse),9.16
IRTIDYRFTVW [IDS_Y497_YF],SH2 binding enrichment,SHP2-C SH2,0.868
same,SH2 binding enrichment,Grb2 SH2,0.923
same,SH2 binding enrichment,c-Src SH2,0.528
same,phosphorylation enrichment,EPHB1,0.629
same,phosphorylation enrichment,Fes,1.2
same,phosphorylation enrichment,Fyn,0.423
same,phosphorylation enrichment,Jak2,1.09
same,phosphorylation enrichment,Hck,0.489
same,phosphorylation enrichment,AncSZ,1.11
same,phosphorylation enrichment,MERTK,0.402
same,phosphorylation enrichment,c-Abl (mouse),0.735
same,phosphorylation enrichment,c-Src,0.39
same,phosphorylation enrichment,FGFR1,0.41
same,phosphorylation enrichment,EPHB2,0.614
same,phosphorylation enrichment,FGFR3,0.741
same,phosphorylation enrichment,Fer (mouse),0.557
PVPKTYDMLNA [PKP2_Y108_K112N],SH2 binding enrichment,SHP2-C SH2,0.659
same,SH2 binding enrichment,Grb2 SH2,0.962
same,SH2 binding enrichment,c-Src SH2,1.57
same,phosphorylation enrichment,EPHB1,0.512
same,phosphorylation enrichment,Fes,1.11
same,phosphorylation enrichment,Fyn,0.666
same,phosphorylation enrichment,Jak2,1.04
same,phosphorylation enrichment,Hck,1.07
same,phosphorylation enrichment,AncSZ,0.866
same,phosphorylation enrichment,MERTK,1.14
same,phosphorylation enrichment,c-Abl (mouse),1.05
same,phosphorylation enrichment,c-Src,0.83
same,phosphorylation enrichment,FGFR1,0.597
same,phosphorylation enrichment,EPHB2,0.622
same,phosphorylation enrichment,FGFR3,0.737
same,phosphorylation enrichment,Fer (mouse),0.542
RESVSYLFSHV [PRPS1_Y311_G306R],SH2 binding enrichment,SHP2-C SH2,2.06
same,SH2 binding enrichment,Grb2 SH2,0.907
same,SH2 binding enrichment,c-Src SH2,0.654
same,phosphorylation enrichment,EPHB1,0.588
same,phosphorylation enrichment,Fes,1.12
same,phosphorylation enrichment,Fyn,1.41
same,phosphorylation enrichment,Jak2,1.15
same,phosphorylation enrichment,Hck,0.549
same,phosphorylation enrichment,AncSZ,1
same,phosphorylation enrichment,MERTK,0.492
same,phosphorylation enrichment,c-Abl (mouse),1.06
same,phosphorylation enrichment,c-Src,0.742
same,phosphorylation enrichment,FGFR1,0.532
same,phosphorylation enrichment,EPHB2,0.901
same,phosphorylation enrichment,FGFR3,0.814
same,phosphorylation enrichment,Fer (mouse),0.479
EPSLDYMVTKI [CPS1_Y768],SH2 binding enrichment,SHP2-C SH2,0.914
same,SH2 binding enrichment,Grb2 SH2,1.05
same,SH2 binding enrichment,c-Src SH2,0.379
same,phosphorylation enrichment,EPHB1,0.756
same,phosphorylation enrichment,Fes,1.14
same,phosphorylation enrichment,Fyn,0.646
same,phosphorylation enrichment,Jak2,1.05
same,phosphorylation enrichment,Hck,0.566
same,phosphorylation enrichment,AncSZ,1.22
same,phosphorylation enrichment,MERTK,0.469
same,phosphorylation enrichment,c-Abl (mouse),0.606
same,phosphorylation enrichment,c-Src,0.582
same,phosphorylation enrichment,FGFR1,0.814
same,phosphorylation enrichment,EPHB2,0.727
same,phosphorylation enrichment,FGFR3,0.797
same,phosphorylation enrichment,Fer (mouse),0.78
NKKFHYRELPV [ERN2_Y860_H858Y_YF],SH2 binding enrichment,SHP2-C SH2,1.06
same,SH2 binding enrichment,Grb2 SH2,0.877
same,SH2 binding enrichment,c-Src SH2,0.678
same,phosphorylation enrichment,EPHB1,0.362
same,phosphorylation enrichment,Fes,0.508
same,phosphorylation enrichment,Fyn,0.419
same,phosphorylation enrichment,Jak2,0.372
same,phosphorylation enrichment,Hck,0.332
same,phosphorylation enrichment,AncSZ,0.459
same,phosphorylation enrichment,MERTK,0.306
same,phosphorylation enrichment,c-Abl (mouse),0.407
same,phosphorylation enrichment,c-Src,0.266
same,phosphorylation enrichment,FGFR1,0.368
same,phosphorylation enrichment,EPHB2,0.351
same,phosphorylation enrichment,FGFR3,0.45
same,phosphorylation enrichment,Fer (mouse),0.374
LRTAVYHEILI [CREBBP_Y1450],SH2 binding enrichment,SHP2-C SH2,0.858
same,SH2 binding enrichment,Grb2 SH2,0.86
same,SH2 binding enrichment,c-Src SH2,3.56
same,phosphorylation enrichment,EPHB1,1.97
same,phosphorylation enrichment,Fes,3.73
same,phosphorylation enrichment,Fyn,7.22
same,phosphorylation enrichment,Jak2,3.67
same,phosphorylation enrichment,Hck,7.29
same,phosphorylation enrichment,AncSZ,3.59
same,phosphorylation enrichment,MERTK,7.48
same,phosphorylation enrichment,c-Abl (mouse),2.77
same,phosphorylation enrichment,c-Src,12.5
same,phosphorylation enrichment,FGFR1,16.7
same,phosphorylation enrichment,EPHB2,1.85
same,phosphorylation enrichment,FGFR3,12.1
same,phosphorylation enrichment,Fer (mouse),14.4
